{
  "source": "patent US20150233949",
  "key": {"[1]": {"biological_target": "mouse cytochrome c with a C-terminal Flag tag", "sequence (chain, as listed by the source)": "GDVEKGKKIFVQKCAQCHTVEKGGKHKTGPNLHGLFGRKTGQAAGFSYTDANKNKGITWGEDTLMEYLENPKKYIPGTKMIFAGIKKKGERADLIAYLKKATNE"}},
  "data": [
    {"protein": "human SIRT3-HA (protein) MAFWGWRAAAALRLWGRVVERVEAGGGVGPFQACGCRLVLGGRDDVSAGLRGSHGARGEPLDPARPLQRPPRPEVPRAFRRQPRAAAPSFFFSSIKGGRRSISFSVGASSVVGSGGSSDKGKLSLQDVAELIRARACQRVVVMVGAGISTPSGIPDFRSPGSGLYSNLQQYDLPYPEAIFELPFFFHNPKPFFTLAKELYPGNYKPNVTHYFLRLLHDKGLLLRLYTQNIDGLERVSGIPASKLVEAHGTFASATCTVCQRPFPGEDIRADVMADRVPRCPVCTGVVKPDIVFFGEPLPQRFLLHVVDFPMADLLLILGTSLEVEPFASLTEAVRSSVPRLLINRDLVGPLAWHPRSRDVAQLGDVVHGVESLVELLGWTEEMRDLVQRETGKLDGPDK", "values": [
      {"measurement": "acetylation of residues K40 and K74 of cytochrome c (mass spectrometry)", "setting": "[1]", "result": "when hSIRT3 was cotransfected with cytochrome c, acetylation of residues K40 and K74 of cytochrome c was no longer detected"}
    ]},
    {"protein": "SIRT3 (protein) MAFWGWRAAAALRLWGRVVERVEAGGGVGPFQACGCRLVLGGRDDVSAGLRGSHGARGEPLDPARPLQRPPRPEVPRAFRRQPRAAAPSFFFSSIKGGRRSISFSVGASSVVGSGGSSDKGKLSLQDVAELIRARACQRVVVMVGAGISTPSGIPDFRSPGSGLYSNLQQYDLPYPEAIFELPFFFHNPKPFFTLAKELYPGNYKPNVTHYFLRLLHDKGLLLRLYTQNIDGLERVSGIPASKLVEAHGTFASATCTVCQRPFPGEDIRADVMADRVPRCPVCTGVVKPDIVFFGEPLPQRFLLHVVDFPMADLLLILGTSLEVEPFASLTEAVRSSVPRLLINRDLVGPLAWHPRSRDVAQLGDVVHGVESLVELLGWTEEMRDLVQRETGKLDGPDK", "values": [
      {"measurement": "deacetylation assay (Western blot)", "setting": "endogenous cytochrome c", "result": "SIRT3 can deacetylate endogenous cytochrome c"}
    ]}
  ]
}
